Measurements from patent US8586031B2, “Method of reusing rinse water from disinfecting packages with peracid and catalase” (Ecolab USA Inc., priority 2008, dated 2013).

Test: Decomposition of hydrogen peroxide by catalase in about 20,000 ppm acetic acid and 500-800 ppm hydrogen peroxide at 60° C., thiosulfate titration
Assay type: biochemical
Method: Example 1 compared the ability to various catalase enzymes at 100 ppm concentration to decompose hydrogen peroxide. For this example, an aliquot of a stock solution of catalase was added to 1000 ml of a solution containing about 20,000 ppm acetic acid and 500-800 ppm of hydrogen peroxide at 60° C. The catalase addition was done at a rate that produced an enzyme concentration of 100 ppm in the 1000 ml solution The concentration of the hydrogen peroxide was measured at time zero and at 5, 10, and 15 minutes. The concentration of hydrogen peroxide was measured via titration of a 10 ml aliquot of solution including 1-2 ml of […], 1-2 ml concentrated sulfuric acid, 4-5 drops of an oxygen catalyst (saturated solution of Ammonium Molybdate) and a few drops of a starch solution. The titrant was 0.1 N Sodium thio sulfate. The solution was titrated to a colorless endpoint and the peroxide concentration was calculated via the following calculation:
Example 2 compared the ability to various catalase enzymes at 20 ppm concentration to decompose hydrogen peroxide. For this example, 20 ppm of catalase enzyme was diluted in 20,000 ppm acetic acid and 500-800 ppm of hydrogen peroxide at 60° C. The concentration of the hydrogen peroxide was measured at time zero and at 5, 10, and 15 minutes in the same manner as outlined in example 1.

B1: Bovine Catalase: crystaline bovine liver catalase, Sigma Aldrich (protein, UniProt P00432 2-527, looked up)
Catalase: ADNRDPASDQMKHWKEQRAAQKPDVLTTGGGNPVGDKLNSLTVGPRGPLLVQDVVFTDEMAHFDRERIPERVVHAKGAGAFGYFEVTHDITRYSKAKVFEHIGKRTPIAVRFSTVAGESGSADTVRDPRGFAVKFYTEDGNWDLVGNNTPIFFIRDALLFPSFIHSQKRNPQTHLKDPDMVWDFWSLRPESLHQVSFLFSDRGIPDGHRHMNGYGSHTFKLVNANGEAVYCKFHYKTDQGIKNLSVEDAARLAHEDPDYGLRDLFNAIATGNYPSWTLYIQVMTFSEAEIFPFNPFDLTKVWPHGDYPLIPVGKLVLNRNPVNYFAEVEQLAFDPSNMPPGIEPSPDKMLQGRLFAYPDTHRHRLGPNYLQIPVNCPYRARVANYQRDGPMCMMDNQGGAPNYYPNSFSAPEHQPSALEHRTHFSGDVQRFNSANDDNVTQVRTFYLKVLNEEQRKRLCENIAGHLKDAQLFIQKKAVKNFSDVHPEYGSRIQALLDKYNEEKPKNAVHTYVQHGSHLSAREKANL
20 ppm catalase
  decrease of the concentration of hydrogen peroxide: did not measurably decrease
20 ppm catalase, 0 minutes
  Hydrogen Peroxide Concentration: 600 ppm
20 ppm catalase, 5 minutes
  Hydrogen Peroxide Concentration: 600 ppm
20 ppm catalase, 10 minutes
  Hydrogen Peroxide Concentration: 600 ppm
20 ppm catalase, 15 minutes
  Hydrogen Peroxide Concentration: 600 ppm
100 ppm catalase, 0 to 15 minutes
  decreased the concentration of hydrogen peroxide by: 28.9 ppm
100 ppm catalase, 0 minutes
  Hydrogen Peroxide Concentration: 581.4 ppm
100 ppm catalase, 5 minutes
  Hydrogen Peroxide Concentration: 564.4 ppm
100 ppm catalase, 10 minutes
  Hydrogen Peroxide Concentration: 561 ppm
100 ppm catalase, 15 minutes
  Hydrogen Peroxide Concentration: 552.5 ppm
